Test results reported in PMC12857291.

Columns and labels:
[1] = biological target: MeCP2-MBD aromatic cage mutants, W104, F132, Y141, F142 and F155 to alanine (group as printed for the range of KD limits); experiment: ITC; MicroCal PEAQ-ITC, 15 °C, 750 rpm; peptide (1.5 to 2 mM) in the syringe injected into protein (80 to 100 μM) in the cell; 50 mM HEPES pH 7.5, 200 mM NaCl, 5% glycerol; single-binding site model
[2] = biological target: MeCP2-MBD domain wild-type, C-terminal 6xHis-tagged (UniProt P51608); experiment: as above
Chain of MeCP2-MBD domain wild-type, C-terminal 6xHis-tagged (P51608 90-162): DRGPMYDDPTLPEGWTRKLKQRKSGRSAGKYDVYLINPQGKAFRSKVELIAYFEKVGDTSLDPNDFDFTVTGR

histone H3(15-36)K27me3 peptide (from UniProt P68431 16-37)
Kd [1]: > 1000 µM
Kd [2]: 5.2 µM
